Results as given in PMC10764958.

Target: SARS2-NP SIM1A (poly-SUMOylated) (SARS-CoV-2) (UniProt P0DTC9)
Experiment: MST
Conditions: MST: PBS with 0.05% Tween, room temperature

With “CACUCGCUAUGUCGAUAACAACUUCUGUGGCCCUGAUGGCUACCCUCUUGAGUGCAUUAAAGA [Cy5-RNA (SARS-CoV-2 RNA)]” the Kd was 2.71 nM.
